# Patent publication US5863889A, “ICAM-1/LFA-1 short-chain peptides and method of using same” (The University of Kansas, priority 1996, dated 1999)
# Entries after “also recorded” stand apart in the source; their conditions may differ.
# Assays:
# [1] = biological target: T1, ICAM-1 (CD54) (Homo sapiens, UniProt P05362); experiment: Antibody binding assay (FACS): anti-ICAM-1 mAb (mouse IgG anti-human CD54) binding to Molt3 T-cells after peptide incubation; type: cell-based; details: for Fluorescence, % change from control of the medium fluorescence intensity: mAb CD54
# T1 construct: host or cells: Molt3 human T-cell leukemia line
# [2] = system: Molt3 cells; experiment: Cell metabolic assay (MTT); type: cell-based
# Procedure: After taking the photographs in Example 3 (and in some instances no photographs were taken), cell metabolic activity was assessed by an MTT assay. A 37.5 μl portion of MTT dye (purchased from SIGMA of St. Louis, Mo.), i.e., 3-[4,5-dimethyl thiazole-2yl]-2, 5- diphenyl tetrazolium bromide; thiazolyl blue) was added to each well, and incubated with the cells at 37° C. for about six hours. After incubation, a 250 μl quantity of a MTT solubilization solution (of a type that may be purchased from either Fischer Scientific of St. Louis, Mo. or BCD Labs of Lawrence, Kans.) was added to each well, and incubated with the cells at room temperature overnight. In the morning, the spectrophotometric absorption of each plate was determined at 570 nm in a microplate ELISA reader manufactured by Cambridge Technologies of Water-town, Mass., in order to assess cell viability as an indicator of potential peptide toxicity.
# [3] = system: Molt3 cells; experiment: Homotypic adhesion assay (MDHC-induced clumping of T-cells); type: cell-based, human; set-up: key to Homotypic Adhesion Amount: Any sample having a score of "+++" or "++++" is considered to have a significant ability to modulate T-cell binding interaction; Any sample having a score of "+++" or "++++" is considered to have a significant ability to modulate T-cell binding interaction; details: 10 μM MDHC
# Procedure: As before, the T-cells were Molt3 cells prepared in RPMI 1640 growth medium according to Example 2. An approximate 7 ml aliquot of the growth medium was centrifuged (Jouan Model GT422 at 1400 rpm for 6.5 minutes), and the supernatant fluid was decanted. The pellet was resuspended in the supernatant fluid at titer of about 1×10^6 cells/ml, with the excess supernatant fluid being retained for future resuspension of the peptides.
# A 228 nmol quantity of the LJCRF-1 (Sequence ID No. 6) peptide described in Table 1 was diluted with the supernatant fluid to a 500 μl final volume, and filtered in microcentrifuge filter tubes (0.22 micron filter; 3500 rpm for 6 minutes). Serial dilution of the filtered peptide with supernatant fluid was conducted to yield five 125 μl peptide solutions to give respective concentrations of about 115 μM, 230 μM, 460 μM, 910 μM, and 1.82 mM. At each concentration, a 125 μl portion of the cell suspension was pipetted into each 125 μl portion of the peptide solutions to yield combined samples having a 250 μl volume. The 250 μl samples were seeded into individual wells in a 48-well tissue culture grade plate (from Costar of Cambridge, Md.) and incubated at 37° C. for 30 minutes. Each sample received 5 μl of 2,5-methyl dihydroxy cinnamate ("MDHC") for a 10 μM final concentration, and was subsequently incubated for about 10 hours at 37° C. MDHC induces intercellular clumping of human T-cells (Tibbetts, Butler, and Benedict, submitted) by activating the LFA/ICAM binding interaction between respective cells.
# Pictures were taken of five random fields per sample using an Olympus photomicroscope having a 0.8 mm field at 400×magnification, and a 3.2 mm field of view at 100×magnification. The amount of clumping observed was quantified by determining the mean number of clumps per field ± a standard error.
# FIGS. 5, 6, and 7 replicate photographs taken from exemplary peptide assays. FIG. 5 is a photograph of the control sample having no peptides and no MDHC added, from which essentially no clumping of cells is observed. […] Any sample having a score of "+++" or "++++" is considered to have a significant ability to modulate T-cell binding interaction. This is similar to results obtained by incubating similarly treated cells with antibody against either LFA or ICAM.
# The homotypic adhesion assay assesses the actual ability of a candidate peptide to modulate the ability of T-cells to adhere with one another.
# [4] = biological target: T2, ICAM-1 (Homo sapiens, UniProt P05362); experiment: Conformation modulator assay: flow cytometry of FITC-labeled RB-1-88 binding to T-cells after pre-incubation with first peptide; type: cell-based; details: first peptide 4550 μM
# T2 construct: host or cells: Molt3 human T-cell leukemia line
# Procedure: The antibody binding assay of Example 2 was twice repeated at a peptide concentration of 4550 μM, each time substituting a 455 nmol quantity of synthetic peptide selected from the group consisting of ICAM-based peptide SC-3-111 (Sequence ID No. 10) and LFA-based peptide LJCRF-4 (Sequence ID No. 16) in respective assays. Following incubation for 30 minutes at 37° C. after introduction of the first peptides, both incubated culture were supplemented by an additional quantity of FITC-labeled RB-1-88 (Sequence ID No. 19) peptide in a quantity sufficient to provide a 1.90 μM concentration in the cell/PBS solution.
# Following addition of the RB-1-88 (Sequence ID No. 19) peptide, the mixture was incubated for 30 minutes at 4° C., washed three times with 500 μl PBS/BSA, resuspended in 500 μl PBS/BSA and immediately subjected to a flow cytometer analysis as before. Table 3 presents the results of this analysis, which are also depicted in FIGS. 8 (SC-3-111) and 9 (LJCRF-4).
# T1 sequence (P05362 28-532): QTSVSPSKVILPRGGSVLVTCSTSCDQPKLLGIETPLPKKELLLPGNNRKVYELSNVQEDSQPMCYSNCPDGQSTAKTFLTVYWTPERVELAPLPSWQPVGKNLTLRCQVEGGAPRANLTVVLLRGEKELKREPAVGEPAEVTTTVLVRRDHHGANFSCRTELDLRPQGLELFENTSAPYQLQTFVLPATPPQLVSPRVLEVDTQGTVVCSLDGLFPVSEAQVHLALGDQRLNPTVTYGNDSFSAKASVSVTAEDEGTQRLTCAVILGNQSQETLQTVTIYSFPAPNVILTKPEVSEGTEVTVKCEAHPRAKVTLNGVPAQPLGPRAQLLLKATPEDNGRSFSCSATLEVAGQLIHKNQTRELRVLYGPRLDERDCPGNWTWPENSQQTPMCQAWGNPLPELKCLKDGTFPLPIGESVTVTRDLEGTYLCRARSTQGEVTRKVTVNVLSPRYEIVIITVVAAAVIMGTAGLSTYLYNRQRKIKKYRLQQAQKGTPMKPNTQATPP
# T2 sequence (P05362 28-532): as above
substance,measurement,setting,value
"LJCRF-4: LFA-1β based modulator peptide, Sequence ID No. 16 (DLSYSLDDLRNVKKLGGDLLRALNE)",effect on anti-ICAM-1 mAb binding,"[1]; FIG. 4, peptide 4550 μM",promote the specific antibody binding
same,"Fluorescence, % change from control of the medium fluorescence intensity","[1]; peptide 2275 μM, average ± standard error of runs",+3 ± 1%
same,"Fluorescence, % change from control of the medium fluorescence intensity","[1]; peptide 6825 μM, 1 run",+521%
same,median peak curve shift (enhancement),"[1]; single run of FIG. 4, peptide 4550 μM, anti-ICAM antibody",+447%
same,MTT % Viability,[2]; peptide 115 μM,99%
same,MTT % Viability,[2]; peptide 230 μM,101%
same,MTT % Viability,[2]; peptide 460 μM,94%
same,MTT % Viability,[2]; peptide 910 μM,60%
same,MTT % Viability,[2]; peptide 1820 μM,11%
same,Homotypic Adhesion Amount,[3]; peptide 115 μM,+++
same,Homotypic Adhesion Effect,[3]; peptide 115 μM,Enhance
same,Homotypic Adhesion Amount,[3]; peptide 230 μM,+++
same,Homotypic Adhesion Effect,[3]; peptide 230 μM,Enhance; also recorded: binding enhancers
same,Homotypic Adhesion Amount,[3]; peptide 460 μM,++++
same,Homotypic Adhesion Effect,[3]; peptide 460 μM,Block; also recorded: blockers of intercellular adhesion
same,Homotypic Adhesion Amount,[3]; peptide 910 μM,++++
same,Homotypic Adhesion Effect,[3]; peptide 910 μM,Block
same,Homotypic Adhesion Amount,[3]; peptide 1820 μM,+++
same,Homotypic Adhesion Effect,[3]; peptide 1820 μM,Block
same,FACS Analysis (RB-1-88 binding),"[4]; then FITC-labeled RB-1-88 1.90 μM, shift vs control",+145%
same,effect on binding of labeled peptide (RB-1-88 / LJCRF-6) to T-cell ICAM-1,"[4]; FIGS. 8, 9",synergistically increases binding; also recorded: significant T-cell binding enhancement; also recorded: significantly enhanced
